Several values for one entry are separate records, joined by “and”; a condition that tells them apart may be missing. Identical values can stand only once.
Tests used:
[1] = biological target: T1, cathepsin B (Homo sapiens, UniProt P07858); experiment: Kinetics of cathepsin B inhibition by Spi2A; format: biochemical
T1 construct: purchased Calbiochem or Athens Research and Technology

[2] = tested on: LCMV-specific CD8 cells; conditions: mouse, in vivo
[3] = tested on: anti-LCMV memory CD8 cells; conditions: mouse, in vivo
[4] = tested on: caspase-8, 9 and 3, and Bid; experiment: Death effector assays: caspase and Bid activation (western blots, enzyme assays), RelA^−/− MEFs; format: cell-based, mouse; conditions: TNF-α 0.2 ng/ml, CHX 0.1 μg/ml; FIG. 5A, 5B
Experimental: Death effector assays. Death effector pathways were induced in […] MEFs by treatment TNF-α (0.2 ng/ml) and CHX (0.1 μg/ml). Assays for executioner proteases (caspases and cathepsin B) were performed on crude cytoplasmic extracts (Stegh et al., 2000). Briefly, MEFs (10^6) were lysed in 10 mM Tris-Cl, pH 7.5, 100 mM NaCl, 1 mM EDTA, 0.01% Triton X-100 (50 μl) for 30 min on ice then centrifuged at 15,000 g for 30 min at 4° C. and the supernatant recovered. Protein concentration was determined by Lowry assay (DC-protein assay kit, Biorad). […]
Colorimetric assays for capases were performed in reaction buffer (50 mM HEPES, pH 7.4, 100 mM NaCl, 10 mM DTT, 1 mM EDTA, 10% glycerol, 0.1% CHAPS) at 37° C. on crude cytoplasmic extracts using p-Nitoaniline (pNA)-labeled substrates (Calbiochem) specific for caspases 3 and 7 (Ac-DEVD-pNA), caspase 8 (Ac-IETD-pNA), caspase 9 (Ac-LEHD-pNA), each at 0.2 mM. Specific activity was determined by subtracting the apparent activity detected after 1 h pre-incubation of extract with the pan-caspase inhibitor Z-VAD.fmk at 50 μM (ICN Biomedicals Inc), then normalizing for the amount of protein. […] Specific activity was determined by subtracting the apparent activity detected after 30 min pre-incubation of extract at 37° C. with the cathespin B inhibitor CA-074 Me at 30 μM (Peptide Institute) then normalizing for the amount of protein.

[5] = tested on: Spi2A mRNA; conditions: mouse, in vivo
[6] = biological target: T2, caspase 3 (Homo sapiens, UniProt P42574); experiment: Protease specificity of Spi2A: caspase 3; format: biochemical; conditions: FIG. 6B
T2 construct: purchased Calbiochem or Athens Research and Technology
T2 sequence (P42574 29-175 limits assumed): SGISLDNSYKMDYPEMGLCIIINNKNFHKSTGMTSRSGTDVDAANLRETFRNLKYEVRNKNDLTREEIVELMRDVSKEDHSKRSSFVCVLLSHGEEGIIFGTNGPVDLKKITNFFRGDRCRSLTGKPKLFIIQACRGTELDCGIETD
T2 sequence (P42574 176-277 limits assumed): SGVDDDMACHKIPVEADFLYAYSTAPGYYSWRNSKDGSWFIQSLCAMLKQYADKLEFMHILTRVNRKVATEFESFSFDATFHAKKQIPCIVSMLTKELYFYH
Experimental: Protease specificity of Spi2A. RelA^−/− MEFs were transduced with retrovirus encoding Spi2A with a C-terminal 3×FLAG epitope tag and Spi2A-3×FLAG purified using a method described previously (Cooley et al., 1998). Briefly, cells (3×10^9) were lysed and Spi2A-3×FLAG (75 μg) purified by batch Q-Fast Flow ion-exchange chromatography (Pharmacia Biotech) after elution at 160-220 mM NaCl followed by anti-FLAG antibody columns, performed according to manufacturer's instructions (Sigma-Aldrich). Spi2A-3×FLAG was dialysed into PBS and stored as aliquots at −80° C. until needed.
Proteases were purchases from the manufacturers (Calbiochem or Athens Research and Technology) except granzymes A and B which were purified as described (Hanna et al., 1993) and cathespin V and K, which were purified as described (Bromme et al., 1999; Linnevers et al., 1997). Proteases (20 nM) were incubated in the appropriate assay buffer with Spi2A at 200 nM (at least 10-fold excess of inhibitor to maintain pseudo-first order conditions) for 1 h at 37° C. Control samples included only the enzyme, without the inhibitor. At the end of 1 h protease activity was assayed. […] Substrate hydrolysis was measured in a fluorescence microtiter plate reader (Spectramax Gemini XS, Molecular Devices). Percentage inhibition was calculated from the residual enzyme activity compared to no Spi2A controls. […]

B1: Spi2A: murine Spi2A polypeptide, SEQ ID NO:2; purified as C-terminal 3×FLAG protein or expressed from MIGR1 retrovirus in cells and bone-marrow chimeras (protein, listed as Mus musculus)
chain: MAGVSPAVFGCPDVTLGRNTAVREVQENVTSVDSLTLVSSNTDFAFSLYRKLVLKNPDENVVFSPFSICTALALLSLGAKSNTLKEILEGLKFNLTETPEPDIHQGFRYLLDLLSQPGNQVQISTGSALFIEKHLQILAEFKEKARALYQAEAFTADFQQPLKATKLINDYVSNHTQGKIKELISGLKESTLMVLVNYIYFKGKWKNPFDPNDTFKSEFYLDEKRSVIVSMMKTGYLTTPYFRDEELSCTVVELKYTGNASAMFILPDQGRMQQVEASLQPETLRKWKNSLKPRMIHELRLPKFSISTDYSLEHILPELGIREVFSTHADLSAITGTKDLRVSQVVHKAVLDVAEKGTEAAAATGMAGVGCCAVFDFLEIFFNRPFLMIISDTKAHIALFMAKVTNPERSTNFPNGEGASSQRLESKRLCFGDPLCLIGQ
modifications: C-terminal 3xFLAG tag
notes: purified as C-terminal 3×FLAG protein or expressed from MIGR1 retrovirus in cells and bone-marrow chimeras
second-order association rate constant for the inhibition of cathepsin B ([1]; 20 nM cathepsin B, 5 μM (Z-FR)2-R110, 200 or 400 nM Spi2A, pseudo-first order conditions): > 10^6 M^−1 s^−1 | Inhibition of cathepsin B within the dead time of the measurement ([1]; dead time ˜30 s, 200 or 400 nM Spi2A): completely inhibited | Anti-LCMV CD8 cells as a percentage of the total GFP^+ CD8^+ cell population in PBLs [2]: significantly elevated | Level of anti-LCMV CD8 cells during the contraction phase [2]: considerable increase | Level of anti-LCMV CD8 cells during the initial expansion phase [2]: did not increase | Level of anti-LCMV CD8 cells during the memory phase [2]: elevated level | Residual level of anti-LCMV CD8 cells (level 56 days after infection as percentage of the maximum on day 14) [2]: significantly (p<0.001) higher | Residual level of anti-LCMV CD8 cells (level after 98 days as percentage of the maximum after 14 days) [2]: significantly higher | Time for which the elevated memory-phase level was stable [2]: at least 14 weeks | Number of anti-LCMV CD8 cells per spleen GFP^− [3]: 5.07 ± 0.68 (n = 3) ×10^−5 and 2.79 ± 0.12 (n = 6) ×10^−5 | Percentage and absolute number of anti-LCMV memory CD8 cells (IFN-γ^+ CD8^+) in the spleen [3]: increased | Activation of apical and executioner caspases and Bid [4]: suppressed | Spi2A mRNA in GFP^+ CD8^+ spleen cells [5]: significant increase | Inhibition of protease by Spi2A (percentage inhibition) [6]: did not extend to any of the caspases tested
